Laboratory results from patent US20170355771A1 (Biogen, published 2017).

Assays:
[1] = target: T1, GPIIb/IIIa (SEQ ID NOs: 23 and 24) (human, UniProt P08514 32-994; P05106 27-716); test: Bio-Layer Interferometry (OctetRed), monovalent format, yeast-purified Fab; apparent dissociation rate Kdis
T1 construct: also called GPIIb/IIIa complex
Procedure: (§1) BLI was performed on the OctetRed94 instrument, manufactured by ForteBio, according to standard procedures.

[2] = target: T1, GPIIb/IIIa (SEQ ID NOs: 23 and 24); test: Bio-Layer Interferometry (OctetRed), monovalent format, yeast-purified Fab; apparent monovalent affinity
Procedure: as §1

T1 sequence (P08514 32-994 limits assumed, chain 1 of 2): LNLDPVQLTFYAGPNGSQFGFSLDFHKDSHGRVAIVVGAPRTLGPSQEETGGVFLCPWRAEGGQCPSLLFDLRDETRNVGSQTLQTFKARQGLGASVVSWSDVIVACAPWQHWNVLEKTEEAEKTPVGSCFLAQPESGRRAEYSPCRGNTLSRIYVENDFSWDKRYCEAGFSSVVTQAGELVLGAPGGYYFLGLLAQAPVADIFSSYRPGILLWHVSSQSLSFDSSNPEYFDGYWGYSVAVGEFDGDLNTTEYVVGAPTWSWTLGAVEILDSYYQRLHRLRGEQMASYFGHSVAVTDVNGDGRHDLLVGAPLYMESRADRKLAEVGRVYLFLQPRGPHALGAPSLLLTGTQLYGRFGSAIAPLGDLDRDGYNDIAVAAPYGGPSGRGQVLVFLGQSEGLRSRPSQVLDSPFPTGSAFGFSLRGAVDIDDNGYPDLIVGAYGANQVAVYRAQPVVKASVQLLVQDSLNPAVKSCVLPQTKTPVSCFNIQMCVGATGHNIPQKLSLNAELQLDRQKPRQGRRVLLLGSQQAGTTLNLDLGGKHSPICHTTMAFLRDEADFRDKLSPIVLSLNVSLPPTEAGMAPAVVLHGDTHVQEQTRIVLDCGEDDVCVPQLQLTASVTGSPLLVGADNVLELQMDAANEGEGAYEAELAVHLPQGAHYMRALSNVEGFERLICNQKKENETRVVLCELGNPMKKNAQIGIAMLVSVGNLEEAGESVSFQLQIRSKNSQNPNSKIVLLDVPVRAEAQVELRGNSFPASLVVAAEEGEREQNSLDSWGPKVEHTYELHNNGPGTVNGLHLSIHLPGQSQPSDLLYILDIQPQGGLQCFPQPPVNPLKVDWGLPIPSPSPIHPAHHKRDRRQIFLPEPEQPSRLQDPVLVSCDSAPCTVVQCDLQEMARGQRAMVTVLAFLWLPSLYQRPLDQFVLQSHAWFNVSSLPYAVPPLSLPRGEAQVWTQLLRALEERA
T1 sequence (P05106 27-716 limits assumed, chain 2 of 2): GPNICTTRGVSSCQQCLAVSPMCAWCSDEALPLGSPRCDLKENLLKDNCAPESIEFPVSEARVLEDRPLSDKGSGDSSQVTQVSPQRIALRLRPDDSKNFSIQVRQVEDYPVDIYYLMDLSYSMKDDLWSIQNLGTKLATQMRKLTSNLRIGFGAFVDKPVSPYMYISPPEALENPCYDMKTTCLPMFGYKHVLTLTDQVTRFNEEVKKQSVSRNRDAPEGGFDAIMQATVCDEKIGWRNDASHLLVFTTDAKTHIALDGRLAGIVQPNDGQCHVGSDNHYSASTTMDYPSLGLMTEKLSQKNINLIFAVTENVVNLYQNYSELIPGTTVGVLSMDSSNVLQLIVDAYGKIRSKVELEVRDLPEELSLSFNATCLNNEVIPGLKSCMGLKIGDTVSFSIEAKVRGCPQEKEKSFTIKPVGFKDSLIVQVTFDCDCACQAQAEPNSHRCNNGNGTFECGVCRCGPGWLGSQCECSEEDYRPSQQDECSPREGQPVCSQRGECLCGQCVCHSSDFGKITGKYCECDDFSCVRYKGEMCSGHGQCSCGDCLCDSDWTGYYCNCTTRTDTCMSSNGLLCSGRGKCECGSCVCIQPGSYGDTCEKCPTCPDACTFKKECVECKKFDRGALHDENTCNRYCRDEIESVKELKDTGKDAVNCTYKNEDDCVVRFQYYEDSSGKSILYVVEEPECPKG

koff [1]	Kd [2]	Binder
0.00822 s⁻¹	29 nM	affinity matured h34D10 Fab VH100/VL0 (Fab, V domains shown, Yeast-expressed, protein A purified, then made into Fab) VH: EVQLVESGGGLVKPGGSLRLSCAASGFTFGAYAMSWVRQAPGKGLVWVASISSGGTTYYPDSVKRQFTISRDNAKNTLYLQMNSLRAEDTAVYYCTRGGDYSYALDYWGQGTLVTVSS VL: EIVMTQSPATLSVSPGERATLSCRASSSVNYMYWYQQKPGQAPRLLIYYTSNLAPGIPARFSGSGSGTEFTLTISSLQSEDFAVYYCQQFSSSPWTFGQGTKVEIK
0.0114 s⁻¹	42 nM	affinity matured h34D10 Fab VH105/VL0 (Fab, V domains shown, Yeast-purified Fab) VH: EVQLVESGGGLVKPGGSLRLSCAASGFTFSAYAMSWVRQAPGKGLVWVASISSGGTTYYPDSVKRQFTISRDNAKNTLYLQMNSLRAEDTAVYYCTRGGDYSYALDYWGQGTLVTVSS VL: EIVMTQSPATLSVSPGERATLSCRASSSVNYMYWYQQKPGQAPRLLIYYTSNLAPGIPARFSGSGSGTEFTLTISSLQSEDFAVYYCQQFSSSPWTFGQGTKVEIK
0.0372 s⁻¹	160 nM	affinity matured h34D10 Fab VH113/VL0 (Fab, V domains shown, Yeast-purified Fab) VH: EVQLVESGGGLVKPGGSLRLSCAASGFTFSAYAMSWVRQAPGKGLVWVAGISSGGTTYYPDSVKRQFTISRDNAKNTLYLQMNSLRAEDTAVYYCTRGGDYGYALDYWGQGTLVTVSS VL: EIVMTQSPATLSVSPGERATLSCRASSSVNYMYWYQQKPGQAPRLLIYYTSNLAPGIPARFSGSGSGTEFTLTISSLQSEDFAVYYCQQFSSSPWTFGQGTKVEIK
0.0432 s⁻¹	130 nM	affinity matured h34D10 Fab VH116/VL0 (Fab, V domains shown, Yeast-purified Fab) VH: EVQLVESGGGLVKPGGSLRLSCAASGFTFSAYAMSWVRQAPGKGLVWVASISSGGTTYYPDSVKRQFTISRDDAKNTLYLQMNSLRAEDTAVYYCTRGGDYGYALDYWGQGTLVTVSS VL: EIVMTQSPATLSVSPGERATLSCRASSSVNYMYWYQQKPGQAPRLLIYYTSNLAPGIPARFSGSGSGTEFTLTISSLQSEDFAVYYCQQFSSSPWTFGQGTKVEIK
0.0352 s⁻¹	150 nM	affinity matured h34D10 Fab VH111/VL0 (Fab, V domains shown, Yeast-purified Fab) VH: EVQLVESGGGLVKPGGSLRLSCAASGFTFNAYAMSWVRQAPGEGLVWVASISSGGTTYYPDSVKRQFTISRDNAKNTLYLQMNSLRAEDTAVYYCTRGGDYGYALDYWGQGTLVTVSS VL: EIVMTQSPATLSVSPGERATLSCRASSSVNYMYWYQQKPGQAPRLLIYYTSNLAPGIPARFSGSGSGTEFTLTISSLQSEDFAVYYCQQFSSSPWTFGQGTKVEIK
0.0113 s⁻¹	31 nM	affinity matured h34D10 Fab VH104/VL0 (Fab, V domains shown, Yeast-purified Fab) VH: EVQLVESGGGLVKPGGSLRLSCAASGFTFSAYAMSWVRQAPGKGLVWVASISSGGTTYYPDSVKRQFTISRDNAKNTLYLQMNSLRAEDTAVYYCTRGGDYSYALDYWGRGTLVTVSS VL: EIVMTQSPATLSVSPGERATLSCRASSSVNYMYWYQQKPGQAPRLLIYYTSNLAPGIPARFSGSGSGTEFTLTISSLQSEDFAVYYCQQFSSSPWTFGQGTKVEIK
0.0429 s⁻¹	120 nM	affinity matured h34D10 Fab VH115/VL0 (Fab, V domains shown, Yeast-purified Fab) VH: GVQLVESGGGLVKPGGSLRLSCAASGFTFSAYAMSWVRQAPGKGLVWVASISSGGTTYYPDSVKRQFTISRDDAKNTLYLQMNSLRAEDTAVYYCTRGGDYGYALDYWGQGTLVTVSS VL: EIVMTQSPATLSVSPGERATLSCRASSSVNYMYWYQQKPGQAPRLLIYYTSNLAPGIPARFSGSGSGTEFTLTISSLQSEDFAVYYCQQFSSSPWTFGQGTKVEIK
0.0127 s⁻¹	44 nM	affinity matured h34D10 Fab VH106/VL0 (Fab, V domains shown, Yeast-purified Fab) VH: EVQLVECGGGLVKPGGSLRLSCAASGFTFSAYAMSWVRQAPGKGLVWVASISSGGTTYYPDSVKRQFTISRDNAKNTLYLQMNSLRAEDTAVYYCTRGGDYSYALDYWGQGTLVTVSS VL: EIVMTQSPATLSVSPGERATLSCRASSSVNYMYWYQQKPGQAPRLLIYYTSNLAPGIPARFSGSGSGTEFTLTISSLQSEDFAVYYCQQFSSSPWTFGQGTKVEIK
0.00977 s⁻¹	36 nM	affinity matured h34D10 Fab VH102/VL0 (Fab, V domains shown, Yeast-purified Fab) VH: EVQLVESGGGLVKPGGSLRLSCAASGFTFSAYAMSWVRQAPGKGLVWVASISSGGTTYYPDSVKRQFTISRDNAKNTLYLQMNSLRAEDTAVYYCTRGGDYSYALDYWGQGTLVTVSF VL: EIVMTQSPATLSVSPGERATLSCRASSSVNYMYWYQQKPGQAPRLLIYYTSNLAPGIPARFSGSGSGTEFTLTISSLQSEDFAVYYCQQFSSSPWTFGQGTKVEIK
0.0393 s⁻¹	130 nM	affinity matured h34D10 Fab VH114/VL0 (Fab, V domains shown, Yeast-purified Fab) VH: EMQLVESGGGLVKPGGSLRLSCAASGFTFSAYAMSWVRQAPGKGLVWVASISSGGTTYYPDSVKRQFTISRDNAKNTLYLQMNSLRAEDTAVYYCTRGGDYGYALDYWGQGTLVTVSS VL: EIVMTQSPATLSVSPGERATLSCRASSSVNYMYWYQQKPGQAPRLLIYYTSNLAPGIPARFSGSGSGTEFTLTISSLQSEDFAVYYCQQFSSSPWTFGQGTKVEIK
0.0352 s⁻¹	160 nM	affinity matured h34D10 Fab VH112/VL0 (Fab, V domains shown, Yeast-purified Fab) VH: EVQLVESGGGLVKPGGSLRLSCAASGFTFSAYAMSWVRQAPGEGLVWVAGISSGGTTYYPDSVKRQFTISRDNAKNTLYLQMNSLRAEDTAVYYCTRGGDYGYALDYWGQGTLVTVSS VL: EIVMTQSPATLSVSPGERATLSCRASSSVNYMYWYQQKPGQAPRLLIYYTSNLAPGIPARFSGSGSGTEFTLTISSLQSEDFAVYYCQQFSSSPWTFGQGTKVEIK
0.00836 s⁻¹	25 nM	affinity matured h34D10 Fab VH101/VL0 (Fab, V domains shown, Yeast-purified Fab) VH: EVQLVESGGGLVKPGGSLRLSCAASGFTFSAYAMSWVRQAPGKGLVWVASISSGGTTYYPDSVERQFTISRDNAKNTLYLQMNSLRAEDTAVYYCTRGGDYSYALDYWGQGTLVTVSS VL: EIVMTQSPATLSVSPGERATLSCRASSSVNYMYWYQQKPGQAPRLLIYYTSNLAPGIPARFSGSGSGTEFTLTISSLQSEDFAVYYCQQFSSSPWTFGQGTKVEIK
0.0337 s⁻¹	130 nM	affinity matured h34D10 Fab VH110/VL0 (Fab, V domains shown, Yeast-purified Fab) VH: EVQLVESGGGLVKPGGSLRLSCAASGFTFNAYAMSWVRQAPGKGLVWVASISSGGTTYYPDSVKRQFTISRDNAKNTLYLQMNSLRAEDTAVYYCTRGGDYGYALDYWGQGTLVTVSS VL: EIVMTQSPATLSVSPGERATLSCRASSSVNYMYWYQQKPGQAPRLLIYYTSNLAPGIPARFSGSGSGTEFTLTISSLQSEDFAVYYCQQFSSSPWTFGQGTKVEIK
0.0435 s⁻¹	160 nM	affinity matured h34D10 Fab VH117/VL0 (Fab, V domains shown, Yeast-purified Fab) VH: EAQLVESGGGLVKPGGSLRLSCAASGFTFSAYAMSWVRQAPGKGLVWVASISSGGTTYYPDSVKRQFTISRDNAKNTLYLQMNSLRAEDTAVYYCTRGGDYGYALDYWGQGTLVTVSS VL: EIVMTQSPATLSVSPGERATLSCRASSSVNYMYWYQQKPGQAPRLLIYYTSNLAPGIPARFSGSGSGTEFTLTISSLQSEDFAVYYCQQFSSSPWTFGQGTKVEIK
0.0482 s⁻¹	140 nM	affinity matured h34D10 Fab VH119/VL0 (Fab, V domains shown, Yeast-purified Fab) VH: GVQLVESGGGLVKPGGSLRLSCAASGFTFSAYAMSWVRQAPGKGLVWVASISSGGTTYYPDSVKRQFTISRDNAKNTLYLQMNSLRAEDTAVYYCTRGGDYGYALDYWGQGTLVTVSS VL: EIVMTQSPATLSVSPGERATLSCRASSSVNYMYWYQQKPGQAPRLLIYYTSNLAPGIPARFSGSGSGTEFTLTISSLQSEDFAVYYCQQFSSSPWTFGQGTKVEIK
0.0103 s⁻¹	37 nM	affinity matured h34D10 Fab VH103/VL0 (Fab, V domains shown, Yeast-purified Fab) VH: EVQLVESGGGLVKPGGSLRLSCAASGFTFSAYAMSWVRQAPGKGLVWVASISSGGTTYYPDSVKRQFTISRDNAKNTLYLQVNSLRAEDTAVYYCTRGGDYSYALDYWGQGTLVTVSS VL: EIVMTQSPATLSVSPGERATLSCRASSSVNYMYWYQQKPGQAPRLLIYYTSNLAPGIPARFSGSGSGTEFTLTISSLQSEDFAVYYCQQFSSSPWTFGQGTKVEIK
0.0193 s⁻¹	49 nM	affinity matured h34D10 Fab VH108/VL0 (Fab, V domains shown, Yeast-purified Fab) VH: EVQLVESGGGLVKPGGSLRLSCAASGFTFSAYAMSWVRQAPGKGLVWVASISSDGTTYYPDSVKRQFTISRDNARNTLYLQMNSLRAEDTAVYYCTRGGDYSYALDYWGQGTLVTVSS VL: EIVMTQSPATLSVSPGERATLSCRASSSVNYMYWYQQKPGQAPRLLIYYTSNLAPGIPARFSGSGSGTEFTLTISSLQSEDFAVYYCQQFSSSPWTFGQGTKVEIK
0.0142 s⁻¹	48 nM	affinity matured h34D10 Fab VH107/VL0 (Fab, V domains shown, Yeast-purified Fab) VH: EVQLVESGGGLVKPGESLRLSCAASGFTFSAYAMSWVRQAPGEGLVWVASISSGGTTYYPDSVKRQFTISRDNAKNTLYLQMNSLRAEDTAVYYCTRGGDYSYALDYWGQGTLVTVSS VL: EIVMTQSPATLSVSPGERATLSCRASSSVNYMYWYQQKPGQAPRLLIYYTSNLAPGIPARFSGSGSGTEFTLTISSLQSEDFAVYYCQQFSSSPWTFGQGTKVEIK
0.0478 s⁻¹	200 nM	affinity matured h34D10 Fab VH118/VL0 (Fab, V domains shown, Yeast-purified Fab) VH: GVQLVESGGGLVKPGGSLRLSCAASGFTFSAYAMSWVRQAPGKGLVWVASISSGGTTYYPDSVKRQFTISRDNAKNTLYLQMNSLRAEDTAVYYCTRGGDYGYALDYWGQGALVTVSS VL: EIVMTQSPATLSVSPGERATLSCRASSSVNYMYWYQQKPGQAPRLLIYYTSNLAPGIPARFSGSGSGTEFTLTISSLQSEDFAVYYCQQFSSSPWTFGQGTKVEIK
0.031 s⁻¹	120 nM	affinity matured h34D10 Fab VH109/VL0 (Fab, V domains shown, Yeast-purified Fab) VH: EVQLVESGGGLVKPGGSLRLSCAASGFTFSAYAMSWVRQAPGKGLVWVASISSGGTTDYPDSVKRQFTISRDNAKNTLYLQMNSLRAEDTAVYYCTRGGDYGYALDYWGQGTLVTVSS VL: EIVMTQSPATLSVSPGERATLSCRASSSVNYMYWYQQKPGQAPRLLIYYTSNLAPGIPARFSGSGSGTEFTLTISSLQSEDFAVYYCQQFSSSPWTFGQGTKVEIK
